B1: A peptides (“L” peptide, TplE 82-108 plus EQVEVDD) (peptide)
peptide: Ac-DDLFASIGALWTWAWRGPKARQELLKAEQVEVDD-NH2
notes: source: synthetic peptide (solid-phase FMOC, Scilight Biotechnology LLC, HPLC purified)
B2: B peptides (“L” peptide, TplE 82-108 plus EQ) (peptide)
peptide: Ac-DDLFASIGALWTWAWRGPKARQELLKAEQ-NH2
notes: as for B1

Biological target: T1, TplEi (Pseudomonas aeruginosa, UniProt Q9I3K3)
T1 sequence: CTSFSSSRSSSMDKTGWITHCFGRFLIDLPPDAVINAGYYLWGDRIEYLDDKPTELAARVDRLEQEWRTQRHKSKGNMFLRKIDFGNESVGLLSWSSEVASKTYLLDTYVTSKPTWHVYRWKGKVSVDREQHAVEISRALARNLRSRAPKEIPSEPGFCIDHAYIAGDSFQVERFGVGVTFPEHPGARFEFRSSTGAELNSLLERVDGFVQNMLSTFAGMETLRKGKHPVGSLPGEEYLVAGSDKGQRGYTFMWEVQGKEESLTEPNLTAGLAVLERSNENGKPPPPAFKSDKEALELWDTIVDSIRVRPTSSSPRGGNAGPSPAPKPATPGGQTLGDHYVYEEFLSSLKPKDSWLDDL
Test: ITC
Details: both partners purified

Row | Binder | Kd
1 | B1 | ~125 nM
2 | B2 | 478 nM

Source: PMC5611513 (Frontiers in Cellular and Infection Microbiology, 2017)
